Measurements reported in PMC4731781, “The β2 clamp in the Mycobacterium tuberculosis DNA polymerase III αβ2ε replicase promotes polymerization and reduces exonuclease activity” (Scientific Reports, 2016).
Like-named read-outs stand apart in the source and are kept apart here.

Legend:
[1] = target: beta2 clamp (Escherichia coli) (UniProt P0A988); details: cited from earlier work
[2] = target: beta2 clamp (Escherichia coli) (UniProt P0A988); details: cited from earlier work; remark: listed apart in the source
[3] = target: T1, Mtb DNA Pol III δ subunit (HolA) (Mycobacterium tuberculosis, UniProt P71730 1-322); test: co-purification, densitometry of an SDS-PAGE gel; details: partners not purified
T1 sequence: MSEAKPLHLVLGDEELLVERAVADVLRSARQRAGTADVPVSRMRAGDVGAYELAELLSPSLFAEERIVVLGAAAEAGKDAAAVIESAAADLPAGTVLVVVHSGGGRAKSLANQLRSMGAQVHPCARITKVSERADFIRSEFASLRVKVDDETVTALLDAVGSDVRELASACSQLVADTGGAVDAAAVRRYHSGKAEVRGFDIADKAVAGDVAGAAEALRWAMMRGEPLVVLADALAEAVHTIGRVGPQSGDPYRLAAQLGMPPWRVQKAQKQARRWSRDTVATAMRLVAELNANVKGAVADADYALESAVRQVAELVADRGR

[4] = target: T2, Mtb DNA Pol III δ’ subunit (HolB) (Mycobacterium tuberculosis, UniProt Q7D554 1-404); test: co-purification, densitometry of an SDS-PAGE gel; details: partners not purified
T2 sequence: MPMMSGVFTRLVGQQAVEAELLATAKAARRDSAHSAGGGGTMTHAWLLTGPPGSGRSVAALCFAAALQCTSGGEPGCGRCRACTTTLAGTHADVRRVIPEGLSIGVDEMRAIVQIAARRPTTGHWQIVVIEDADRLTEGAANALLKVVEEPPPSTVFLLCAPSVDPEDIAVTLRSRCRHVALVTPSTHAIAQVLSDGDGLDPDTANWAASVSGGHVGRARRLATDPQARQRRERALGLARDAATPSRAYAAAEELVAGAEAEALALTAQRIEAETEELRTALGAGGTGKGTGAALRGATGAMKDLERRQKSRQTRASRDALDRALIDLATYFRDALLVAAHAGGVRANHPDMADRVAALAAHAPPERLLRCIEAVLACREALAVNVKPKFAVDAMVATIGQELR

[5] = target: T3, Mtb DNA Pol III α subunit (DnaE1), purified recombinant (Mycobacterium tuberculosis, UniProt P9WNT7 1-1184); test: SPR; BIAcore3000, β subunit amine-coupled to the chip (about 1800 RU); α injected at 0.01, 0.1 and 1 μM in 50 mM HEPES pH 7.5, 100 mM NaCl, 0.005% Tween20, 30 μl/min; global fit to a 1:1 Langmuir model; details: both partners purified
T3 construct: also called Mtb α; MtbDnaE1; source: E. coli, purified
T3 sequence: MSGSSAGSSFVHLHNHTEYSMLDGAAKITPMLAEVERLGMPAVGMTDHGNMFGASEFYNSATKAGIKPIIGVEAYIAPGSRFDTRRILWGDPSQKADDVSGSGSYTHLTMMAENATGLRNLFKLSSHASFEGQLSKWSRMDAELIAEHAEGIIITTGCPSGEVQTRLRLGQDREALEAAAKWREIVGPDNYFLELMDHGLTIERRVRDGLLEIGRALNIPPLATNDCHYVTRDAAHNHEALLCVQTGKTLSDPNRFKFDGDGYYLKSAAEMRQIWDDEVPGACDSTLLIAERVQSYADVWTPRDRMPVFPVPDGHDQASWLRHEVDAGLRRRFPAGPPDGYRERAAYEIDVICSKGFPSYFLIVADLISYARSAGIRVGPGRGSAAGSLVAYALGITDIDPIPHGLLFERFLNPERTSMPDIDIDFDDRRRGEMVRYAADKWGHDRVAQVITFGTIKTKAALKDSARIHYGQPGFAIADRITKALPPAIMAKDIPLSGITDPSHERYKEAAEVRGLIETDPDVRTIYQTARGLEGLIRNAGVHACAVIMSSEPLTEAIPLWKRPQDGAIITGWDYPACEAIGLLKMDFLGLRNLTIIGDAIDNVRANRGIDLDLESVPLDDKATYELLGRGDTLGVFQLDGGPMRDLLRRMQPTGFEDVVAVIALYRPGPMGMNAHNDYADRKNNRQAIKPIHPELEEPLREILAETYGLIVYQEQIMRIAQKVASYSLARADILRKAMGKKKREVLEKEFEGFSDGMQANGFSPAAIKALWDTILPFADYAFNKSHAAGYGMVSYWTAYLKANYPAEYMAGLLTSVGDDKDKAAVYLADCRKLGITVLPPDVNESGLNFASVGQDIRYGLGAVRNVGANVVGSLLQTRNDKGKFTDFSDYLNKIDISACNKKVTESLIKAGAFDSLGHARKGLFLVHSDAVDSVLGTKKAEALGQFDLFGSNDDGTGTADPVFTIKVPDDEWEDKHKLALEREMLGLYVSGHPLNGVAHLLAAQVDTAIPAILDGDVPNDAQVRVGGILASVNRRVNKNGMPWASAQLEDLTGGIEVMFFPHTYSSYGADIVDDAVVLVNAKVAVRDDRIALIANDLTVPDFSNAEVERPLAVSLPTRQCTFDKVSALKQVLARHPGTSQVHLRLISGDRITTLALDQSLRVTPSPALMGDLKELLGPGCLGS

beta2 clamp (Escherichia coli), sequence (P0A988 whole entry): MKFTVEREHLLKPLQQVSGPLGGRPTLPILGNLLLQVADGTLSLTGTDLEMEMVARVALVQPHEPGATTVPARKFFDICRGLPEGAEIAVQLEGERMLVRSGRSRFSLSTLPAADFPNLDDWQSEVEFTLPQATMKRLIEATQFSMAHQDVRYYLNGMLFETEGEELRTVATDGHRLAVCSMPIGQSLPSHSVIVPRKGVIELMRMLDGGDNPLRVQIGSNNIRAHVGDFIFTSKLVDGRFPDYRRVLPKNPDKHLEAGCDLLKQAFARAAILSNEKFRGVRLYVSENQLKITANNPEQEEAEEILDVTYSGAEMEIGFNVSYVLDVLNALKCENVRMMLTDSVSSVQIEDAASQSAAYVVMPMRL

**Q.** With “DNA polymerase III alpha (from UniProt P10443)” as the molecule, how does the Kd [1] read?
**A.** The Kd was 1200 nM.

**Q.** For “DNA polymerase III epsilon (from UniProt P03007)”, which Kd [2] is on record?
**A.** The Kd was 200000 nM.

B1: Mtb DNA Pol III τ subunit (DnaZX) (natural protein)
chain: MALYRKYRPASFAEVVGQEHVTAPLSVALDAGRINHAYLFSGPRGCGKTSSARILARSLNCAQGPTANPCGVCESCVSLAPNAPGSIDVVELDAASHGGVDDTRELRDRAFYAPVQSRYRVFIVDEAHMVTTAGFNALLKIVEEPPEHLIFIFATTEPEKVLPTIRSRTHHYPFRLLPPRTMRALLARICEQEGVVVDDAVYPLVIRAGGGSPRDTLSVLDQLLAGAADTHVTYTRALGLLGVTDVALIDDAVDALAACDAAALFGAIESVIDGGHDPRRFATDLLERFRDLIVLQSVPDAASRGVVDAPEDALDRMREQAARIGRATLTRYAEVVQAGLGEMRGATAPRLLLEVVCARLLLPSASDAESALLQRVERIETRLDMSIPAPQAVPRPSAAAAEPKHQPAREPRPVLAPTPASSEPTVAAVRSMWPTVRDKVRLRSRTTEVMLAGATVRALEDNTLVLTHESAPLARRLSEQRNADVLAEALKDALGVNWRVRCETGEPAAAASPVGGGANVATAKAVNPAPTANSTQRDEEEHMLAEAGRGDPSPRRDPEEVALELLQNELGARRIDNA
notes: Three copies in the clamp loader τ3δδ’ by densitometry
**Q.** For B1, which “stoichiometry N” value [3] is on record?
**A.** The value was 3 τ per δ.

**Q.** And the “stoichiometry N” value [4]?
**A.** Its value is 3 τ per δ’.

B2: Mtb DNA Pol III β2 clamp (DnaN), purified recombinant (natural protein)
chain: MDAATTRVGLTDLTFRLLRESFADAVSWVAKNLPARPAVPVLSGVLLTGSDNGLTISGFDYEVSAEAQVGAEIVSPGSVLVSGRLLSDITRALPNKPVDVHVEGNRVALTCGNARFSLPTMPVEDYPTLPTLPEETGLLPAELFAEAISQVAIAAGRDDTLPMLTGIRVEILGETVVLAATDRFRLAVRELKWSASSPDIEAAVLVPAKTLAEAAKAGIGGSDVRLSLGTGPGVGKDGLLGISGNGKRSTTRLLDAEFPKFRQLLPTEHTAVATMDVAELIEAIKLVALVADRGAQVRMEFADGSVRLSAGADDVGRAEEDLVVDYAGEPLTIAFNPTYLTDGLSSLRSERVSFGFTTAGKPALLRPVSGDDRPVAGLNGNGPFPAVSTDYVYLLMPVRLPG
notes: DNA polymerase III β subunit (sliding clamp) DnaN of Mycobacterium tuberculosis; also called β subunit; β clamp
**Q.** With B2 as the molecule, how does the Kd [5] read?
**A.** Its Kd is 10.9 nM.
